Results: patent US20230058774A1

Experiments:
[1] = target: FasDNR (Fas dominant negative receptor, deletion of amino acids 230-314 of human Fas) (human) (UniProt P25445); experiment: cell-based or functional assay
[2] = target: human Fas, wild type (human) (UniProt P25445); experiment: cell-based or functional assay

apoptosis (active Caspase3/7 and Annexin V) of primary human CD8+ T cells exposed to 100 ng/ml FasL-LZ [1]: < 20%
apoptosis (active Caspase3/7 and Annexin V) of primary human CD8+ T cells exposed to 100 ng/ml FasL-LZ [2]: 70%
Substance: soluble FasL oligomerized through a leucine zipper motif (FasL-LZ) (from UniProt P48023 103-281) (ligand)
